Assay results: PMC9978035, “Human uridine 5′-monophosphate synthase stores metabolic potential in inactive biomolecular condensates” (The Journal of Biological Chemistry, 2023)

Assays:
[1] = biological target: the molecule itself; experiment: SEC; 20 mM Tris pH 7.5, 100 mM NaCl; SEPAX SRT-10-SEC-300 or Superdex 200 columns; MW standards run under the same conditions; also run with 500 μM orotate
[2] = biological target: the molecule itself; experiment: AUC; sedimentation at 38,000 rpm, absorbance at 280 nm, 1 mg/ml (WT) or 1.5 mg/ml (mutants) and 1:5 dilutions, SEDFIT continuous sedimentation profiles
[3] = biological target: the molecule itself; experiment: cross-linking; SEC fractions in 50.0 mM Na3PO4 pH 8.0, 100.0 mM NaCl, 0.004% glutaraldehyde, quenched at time points up to 2 h, SDS-PAGE

B1: Human uridine 5′-monophosphate synthase (HsUMPS), wildtype (enzyme, UniProt P11172 1-480, looked up)
chain: MAVARAALGPLVTGLYDVQAFKFGDFVLKSGLSSPIYIDLRGIVSRPRLLSQVADILFQTAQNAGISFDTVCGVPYTALPLATVICSTNQIPMLIRRKETKDYGTKRLVEGTINPGETCLIIEDVVTSGSSVLETVEVLQKEGLKVTDAIVLLDREQGGKDKLQAHGIRLHSVCTLSKMLEILEQQKKVDAETVGRVKRFIQENVFVAANHNGSPLSIKEAPKELSFGARAELPRIHPVASKLLRLMQKKETNLCLSADVSLARELLQLADALGPSICMLKTHVDILNDFTLDVMKELITLAKCHEFLIFEDRKFADIGNTVKKQYEGGIFKIASWADLVNAHVVPGSGVVKGLQEVGLPLHRGCLLIAEMSSTGSLATGDYTRAAVRMAEEHSEFVVGFISGSRVSMKPEFLHLTPGVQLEAGGDNLGQQYNSPQEVIGKRGSDIIIVGRGIISAADRLEAAEMYRKAAWEAYLSRLGV
notes: Human UMP synthase (UMPS), bifunctional enzyme with OPRT and OMPDC domains; codon-optimized human UMPS in pDB-His-MBP between NdeI and XhoI; expected protomer MW 52 kDa; both domains are present and the expected protomer mass of 52 kDa fits the whole protein (surmise); also called human UMPS; UMP synthase; source: E. coli BL21(DE3), purified (amylose resin, on-column TEV cleavage, Ni-NTA, SEC or …)
With B1 the “stoichiometry N” value [1] was 2.

B2: HsUMPS D312N (OMPDC active site mutant) (enzyme, human, UniProt P11172 1-480, looked up)
chain: MAVARAALGPLVTGLYDVQAFKFGDFVLKSGLSSPIYIDLRGIVSRPRLLSQVADILFQTAQNAGISFDTVCGVPYTALPLATVICSTNQIPMLIRRKETKDYGTKRLVEGTINPGETCLIIEDVVTSGSSVLETVEVLQKEGLKVTDAIVLLDREQGGKDKLQAHGIRLHSVCTLSKMLEILEQQKKVDAETVGRVKRFIQENVFVAANHNGSPLSIKEAPKELSFGARAELPRIHPVASKLLRLMQKKETNLCLSADVSLARELLQLADALGPSICMLKTHVDILNDFTLDVMKELITLAKCHEFLIFENRKFADIGNTVKKQYEGGIFKIASWADLVNAHVVPGSGVVKGLQEVGLPLHRGCLLIAEMSSTGSLATGDYTRAAVRMAEEHSEFVVGFISGSRVSMKPEFLHLTPGVQLEAGGDNLGQQYNSPQEVIGKRGSDIIIVGRGIISAADRLEAAEMYRKAAWEAYLSRLGV
notes: Human UMP synthase (UMPS) with the OMPDC active site mutation D312N; same construct as the wildtype; as m1 with the mutation; also called OMPDC mutant; source: E. coli BL21(DE3), purified in a similar fashion as WT; not shown: His6, N-terminal, cleaved; MBP, N-terminal, cleaved
B2: binds [1].

B3: HsUMPS S87T/Q90E (OPRT dimerization-deficient mutant) (enzyme, human, UniProt P11172 1-480, looked up)
chain: MAVARAALGPLVTGLYDVQAFKFGDFVLKSGLSSPIYIDLRGIVSRPRLLSQVADILFQTAQNAGISFDTVCGVPYTALPLATVICTTNEIPMLIRRKETKDYGTKRLVEGTINPGETCLIIEDVVTSGSSVLETVEVLQKEGLKVTDAIVLLDREQGGKDKLQAHGIRLHSVCTLSKMLEILEQQKKVDAETVGRVKRFIQENVFVAANHNGSPLSIKEAPKELSFGARAELPRIHPVASKLLRLMQKKETNLCLSADVSLARELLQLADALGPSICMLKTHVDILNDFTLDVMKELITLAKCHEFLIFEDRKFADIGNTVKKQYEGGIFKIASWADLVNAHVVPGSGVVKGLQEVGLPLHRGCLLIAEMSSTGSLATGDYTRAAVRMAEEHSEFVVGFISGSRVSMKPEFLHLTPGVQLEAGGDNLGQQYNSPQEVIGKRGSDIIIVGRGIISAADRLEAAEMYRKAAWEAYLSRLGV
notes: Human UMP synthase (UMPS) with the double mutation S87T/Q90E at the native OPRT dimer interface; same construct as the wildtype; as m1 with the mutations; also called oligomerization-deficient mutant; source: E. coli BL21(DE3), purified in a similar fashion as WT; not shown: His6, N-terminal, cleaved; MBP, N-terminal, cleaved
B3 was tested, and the “stoichiometry N” value [2] was 2.

B4: HsUMPS E123Q (OPRT active site mutant) (enzyme, human, UniProt P11172 1-480, looked up)
chain: MAVARAALGPLVTGLYDVQAFKFGDFVLKSGLSSPIYIDLRGIVSRPRLLSQVADILFQTAQNAGISFDTVCGVPYTALPLATVICSTNQIPMLIRRKETKDYGTKRLVEGTINPGETCLIIQDVVTSGSSVLETVEVLQKEGLKVTDAIVLLDREQGGKDKLQAHGIRLHSVCTLSKMLEILEQQKKVDAETVGRVKRFIQENVFVAANHNGSPLSIKEAPKELSFGARAELPRIHPVASKLLRLMQKKETNLCLSADVSLARELLQLADALGPSICMLKTHVDILNDFTLDVMKELITLAKCHEFLIFEDRKFADIGNTVKKQYEGGIFKIASWADLVNAHVVPGSGVVKGLQEVGLPLHRGCLLIAEMSSTGSLATGDYTRAAVRMAEEHSEFVVGFISGSRVSMKPEFLHLTPGVQLEAGGDNLGQQYNSPQEVIGKRGSDIIIVGRGIISAADRLEAAEMYRKAAWEAYLSRLGV
notes: Human UMP synthase (UMPS) with the OPRT active site mutation E123Q; same construct as the wildtype; as m1 with the mutation; also called E123Q OPRT mutant; source: E. coli BL21(DE3), purified in a similar fashion as WT; not shown: His6, N-terminal, cleaved; MBP, N-terminal, cleaved
With B4 the “stoichiometry N” value [3] was 2.
